T1: Recombinant human PD-L2-His tag (ACROBiosystems, #PD2-H5220) (human, UniProt Q9BQ51 20-219)
T1 construct: Bought protein; also called sPD-L2; human PD-L2-His tag protein; not shown: His tag
T1 sequence (looked up): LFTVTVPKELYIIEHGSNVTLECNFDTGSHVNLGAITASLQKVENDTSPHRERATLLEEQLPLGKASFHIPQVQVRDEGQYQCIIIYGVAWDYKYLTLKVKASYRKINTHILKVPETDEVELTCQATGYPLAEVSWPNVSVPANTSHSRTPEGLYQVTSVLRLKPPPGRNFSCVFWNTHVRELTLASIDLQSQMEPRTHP


What was measured:
[1] = target: T1, Recombinant human PD-L2-His tag …; assay: Octet RED96e; PD-L2-His loaded at 10 µg/ml on HIS1K sensor; sample 75,8 nM
Experimental: (§1) FIG. 4a is a graph of Octet binding studies on sPD-L2. Recombinant human PD-L2-His tag (ACROBiosystems, #PD2-H5220) was loaded to His-sensor (HIS1 K (Anti-Penta-His)) at 10 μg/ml and the binding of each construct was evaluated by Octet RED96e.
(§2) FIG. 4c is a graph depicting the KD values of anti-CD28/sPD-1 constructs on human PD-L2-His tag protein by Octet RED96e. The equilibrium dissociation constant (KD) is calculated as the ratio koff/kₒₙ (with koff:dissociation rates, and kₒₙ:association rates).
(§3) Anti-CD28/sPD-1 antibody fusion constructs were assessed for their ability to bind PD-1 ligands, PD-L1 and PD-L2 by Octet RED96e. Recombinant human PD-L1-His tag (ACROBiosystems, #PD1-H5229) or recombinant human PD-L2-His tag (ACROBiosystems, #PD2-H5220) were loaded to His-sensor (HIS1 K (Anti-Penta-His)) at 10 μg/ml. […] FIG. 3c is a summary of affinity (measured as Kd, M) for each construct on human PD-L1. […] FIG. 4c is a summary of affinity (measured as Kd, M) for each construct on human PD-L2.

[2] = target: T2, Recombinant human PD-L1-His tag (ACROBiosystems, #PD1-H5229) (human, UniProt Q9NZQ7 19-238); assay: Octet RED96e; PD-L1-His loaded at 10 µg/ml on HIS1K sensor; sample 378,8 nM
T2 construct: Bought protein; also called sPD-L1; human PD-L1-His tag protein; not shown: His tag
Experimental: (§4) FIG. 3a is a graph of Octet binding studies on sPD-L1. Recombinant human PD-L1-His tag (ACROBiosystems, #PD1-H5229) was loaded to His-sensor (HIS1K (Anti-Penta-His)) at 10 μg/ml and the binding of each construct was evaluated by Octet RED96e.
(§5) FIG. 3c is a graph depicting the KD values of anti-CD28/sPD-1 constructs on human PD-L1-His tag protein by Octet RED96e. The equilibrium dissociation constant (KD) is calculated as the ratio koff/kₒₙ (with koff:dissociation rates, and kₒₙ:association rates).
as §3

[3] = target: T2, Recombinant human PD-L1-His tag …; assay: Octet RED96e; PD-L1-His loaded at 10 µg/ml on HIS1K sensor; sample 75,8 nM
Experimental: as §4, §5, §3

[4] = target: T1, Recombinant human PD-L2-His tag …; assay: Octet RED96e; PD-L2-His loaded at 10 µg/ml on HIS1K sensor; sample 378,8 nM
Experimental: as §1, §2, §3

[5] = target: T1, Recombinant human PD-L2-His tag …; assay: Octet RED96e; PD-L2-His loaded at 10 µg/ml on HIS1K sensor; sample 55,6 nM
Experimental: as §1, §2, §3

[6] = target: T1, Recombinant human PD-L2-His tag …; assay: Octet RED96e; PD-L2-His loaded at 10 µg/ml on HIS1K sensor; sample 277,8 nM
Experimental: as §1, §2, §3

[7] = target: T2, Recombinant human PD-L1-His tag …; assay: Octet RED96e; PD-L1-His loaded at 10 µg/ml on HIS1K sensor; sample 277,8 nM
Experimental: as §4, §5, §3

[8] = target: T2, Recombinant human PD-L1-His tag …; assay: Octet RED96e; PD-L1-His loaded at 10 µg/ml on HIS1K sensor; sample 55,6 nM
Experimental: as §4, §5, §3

[9] = target: T2, Recombinant human PD-L1-His tag …; assay: Octet RED96e; PD-L1-His loaded at 10 µg/ml on HIS1K sensor; sample 66,7 nM; negative control, response about zero, round fit values
Experimental: as §4, §5, §3

[10] = target: T1, Recombinant human PD-L2-His tag …; assay: Octet RED96e; PD-L2-His loaded at 10 µg/ml on HIS1K sensor; sample 66,7 nM; negative control, response about zero, round fit values
Experimental: as §1, §2, §3

| Kd [1] [nM] | koff [1] [s⁻¹] | kon [1] [M⁻¹ s⁻¹] | Kd [2] [nM] | koff [2] [s⁻¹] | kon [2] [M⁻¹ s⁻¹] | Kd [3] [nM] | koff [3] [s⁻¹] | kon [3] [M⁻¹ s⁻¹] | Kd [4] [nM] | koff [4] [s⁻¹] | kon [4] [M⁻¹ s⁻¹] | Binder | other results |
| --- | --- | --- | --- | --- | --- | --- | --- | --- | --- | --- | --- | --- | --- |
| 10 | 0.00283 | 282000 | 35.1 | 0.0122 | 348000 | 23.3 | 0.013 | 559000 | 23.7 | 0.00318 | 134000 | monovalent anti-CD28/sPD-1 wt (bispecific antibody, also called Monovalent anti-CD28/sPD-1 Wild type structure; bispecific protein complex A:B-C-X:C'-Y) light: DIELTQSPASLAVSLGQRATISCRASESVEYYVTSLMQWYQQKPGQPPKLLIFAASNVESGVPARFSGSGSGTNFSLNIHPVDEDDVAMYFCQQSRKVPYTFGGGTKLEIKRTVAAPSVFIFPPSDEQLKSGTASVVCLLNNFYPREAKVQWKVDNALQSGNSQESVTEQDSKDSTYSLSSTLTLSKADYEKHKVYACEVTHQGLSSPVTKSFNRGEC heavy: not shown not shown |  |
| 1.05 | 0.000342 | 324000 | 2.17 | 0.00061 | 281000 | 1.57 | 0.00083 | 528000 | 1.33 | 0.000183 | 138000 | monovalent anti-CD28/sPD-1 mut (bispecific antibody, The sPD-1 fragments carry G124S, K131Y and A132I (numbering of full-length human PD-1); also called Mono Mut; Monovalent anti-CD28/sPD-1 Mutated structure) light: DIELTQSPASLAVSLGQRATISCRASESVEYYVTSLMQWYQQKPGQPPKLLIFAASNVESGVPARFSGSGSGTNFSLNIHPVDEDDVAMYFCQQSRKVPYTFGGGTKLEIKRTVAAPSVFIFPPSDEQLKSGTASVVCLLNNFYPREAKVQWKVDNALQSGNSQESVTEQDSKDSTYSLSSTLTLSKADYEKHKVYACEVTHQGLSSPVTKSFNRGEC heavy: EVKLQQSGPGLVTPSQSLSITCTVSGFSLSDYGVHWVRQSPGQGLEWLGVIWAGGGTNYNSALMSRKSISKDNSKSQVFLKMNSLQADDTAVYYCARDKGYSYYYSMDYWGQGTSVTVSSASTKGPSVFPLAPSSKSTSGGTAALGCLVKDYFPEPVTVSWNSGALTSGVHTFPAVLQSSGLYSLSSVVTVPSSSLGTQTYICNVNHKPSNTKVDKRVEPKSCDKTHTCPPCPAPEFEGGPSVFLFPPKPKDTLMISRTPEVTCVVVDVSHEDPEVKFNWYVDGVEVHNAKTKPREEQYNSTYRVVSVLTVLHQDWLNGKEYKCKVSNKALPASIEKTISKAKGQPREPQVYTLPPSREEMTKNQVSLTCLVKGFYPSDIAVEWESNGQPENNYKTTPPVLDSDGSFFLYSKLTVDKSRWQQGNVFSCSVMHEALHNHYTQKSLSLSPGGGGSGGGGSGGGGSLDSPDRPWNPPTFSPALLVVTEGDNATFTCSFSNTSESFVLNWYRMSPSNQTDKLAAFPEDRSQPGQDCRFRVTQLPNGRDFHMSVVRARRNDSGTYLCSAISLAPYIQIKESLRAELRVTERRAEVPTAHPSPSPRPAGQFQ DKTHTCPPCPAPEFEGGPSVFLFPPKPKDTLMISRTPEVTCVVVDVSHEDPEVKFNWYVDGVEVHNAKTKPREEQYNSTYRVVSVLTVLHQDWLNGKEYKCKVSNKALPASIEKTISKAKGQPREPQVYTLPPSREEMTKNQVSLTCLVKGFYPSDIAVEWESNGQPENNYKTTPPVLDSDGSFFLYSKLTVDKSRWQQGNVFSCSVMHEALHNHYTQKSLSLSPGGGGSGGGGSGGGGSLDSPDRPWNPPTFSPALLVVTEGDNATFTCSFSNTSESFVLNWYRMSPSNQTDKLAAFPEDRSQPGQDCRFRVTQLPNGRDFHMSVVRARRNDSGTYLCSAISLAPYIQIKESLRAELRVTERRAEVPTAHPSPSPRPAGQFQ |  |
|  |  |  |  |  |  |  |  |  |  |  |  | bivalent anti-CD28/sPD-1 mut (bispecific antibody, human IgG1, kappa, The sPD-1 fragments carry G124S, K131Y and A132I; also called Bi Mut; Bivalent anti-CD28/sPD-1 Mutated structure) light: DIELTQSPASLAVSLGQRATISCRASESVEYYVTSLMQWYQQKPGQPPKLLIFAASNVESGVPARFSGSGSGTNFSLNIHPVDEDDVAMYFCQQSRKVPYTFGGGTKLEIKRTVAAPSVFIFPPSDEQLKSGTASVVCLLNNFYPREAKVQWKVDNALQSGNSQESVTEQDSKDSTYSLSSTLTLSKADYEKHKVYACEVTHQGLSSPVTKSFNRGEC heavy: EVKLQQSGPGLVTPSQSLSITCTVSGFSLSDYGVHWVRQSPGQGLEWLGVIWAGGGTNYNSALMSRKSISKDNSKSQVFLKMNSLQADDTAVYYCARDKGYSYYYSMDYWGQGTSVTVSSASTKGPSVFPLAPSSKSTSGGTAALGCLVKDYFPEPVTVSWNSGALTSGVHTFPAVLQSSGLYSLSSVVTVPSSSLGTQTYICNVNHKPSNTKVDKRVEPKSCDKTHTCPPCPAPEFEGGPSVFLFPPKPKDTLMISRTPEVTCVVVDVSHEDPEVKFNWYVDGVEVHNAKTKPREEQYNSTYRVVSVLTVLHQDWLNGKEYKCKVSNKALPASIEKTISKAKGQPREPQVYTLPPSREEMTKNQVSLTCLVKGFYPSDIAVEWESNGQPENNYKTTPPVLDSDGSFFLYSKLTVDKSRWQQGNVFSCSVMHEALHNHYTQKSLSLSPGGGGSGGGGSGGGGSLDSPDRPWNPPTFSPALLVVTEGDNATFTCSFSNTSESFVLNWYRMSPSNQTDKLAAFPEDRSQPGQDCRFRVTQLPNGRDFHMSVVRARRNDSGTYLCSAISLAPYIQIKESLRAELRVTERRAEVPTAHPSPSPRPAGQFQ | Kd [5]: 0.774 nM; koff [5]: 0.0003 s⁻¹; kon [5]: 387000 M⁻¹ s⁻¹; Kd [6]: 0.883 nM; koff [6]: 0.000153 s⁻¹; kon [6]: 174000 M⁻¹ s⁻¹; Kd [7]: 1.65 nM; koff [7]: 0.00055 s⁻¹; kon [7]: 334000 M⁻¹ s⁻¹; Kd [8]: 1.21 nM; koff [8]: 0.000698 s⁻¹; kon [8]: 578000 M⁻¹ s⁻¹ |
|  |  |  |  |  |  |  |  |  |  |  |  | Monoclonal anti-CD28 (9.3) mAb (GeneTex, #GTX14664) (antibody, V domains shown, Bought 9.3 mAb without sPD-1 fusion; also called monoclonal antibody 9.3) VH: EVKLQQSGPGLVTPSQSLSITCTVSGFSLSDYGVHWVRQSPGQGLEWLGVIWAGGGTNYNSALMSRKSISKDNSKSQVFLKMNSLQADDTAVYYCARDKGYSYYYSMDYWGQGTSVTVSS VL: DIELTQSPASLAVSLGQRATISCRASESVEYYVTSLMQWYQQKPGQPPKLLIFAASNVESGVPARFSGSGSGTNFSLNIHPVDEDDVAMYFCQQSRKVPYTFGGGTKLEIK | Kd [9]: 100 nM; koff [9]: 0.001 s⁻¹; kon [9]: 10000 M⁻¹ s⁻¹; Kd [10]: 100 nM; koff [10]: 0.001 s⁻¹; kon [10]: 10000 M⁻¹ s⁻¹ |

Reference: US20250197499A1 (STEALTH IO, published 2025)
